Experimental data published in PMC11449375.

Columns and labels:
[1] = target: TRO.11 SOSIP.v9 (HIV-1 clade B, TRO.11); test: native gel or EMSA; Blue Native-PAGE of the purified SOSIP.v9 proteins, 3-12% Bis-Tris NuPAGE gel, 2 ug protein, Colloidal blue stain
[2] = target: TRO.11 SOSIP.v9 (HIV-1 clade B, TRO.11); test: negative-stain EM; purified SOSIPs incubated with Adjuplex, on carbon-covered copper grids, 2% uranyl formate; 2D class averages
[3] = target: AMC008 SOSIP.v9 (HIV-1 clade B, AMC008); test: native gel or EMSA; Blue Native-PAGE of the purified SOSIP.v9 proteins, 3-12% Bis-Tris NuPAGE gel, 2 ug protein, Colloidal blue stain
[4] = target: AMC008 SOSIP.v9 (HIV-1 clade B, AMC008); test: negative-stain EM; purified SOSIPs incubated with Adjuplex, on carbon-covered copper grids, 2% uranyl formate; 2D class averages
[5] = target: AMC011 SOSIP.v9 (HIV-1 clade B, AMC011); test: native gel or EMSA; Blue Native-PAGE of the purified SOSIP.v9 proteins, 3-12% Bis-Tris NuPAGE gel, 2 ug protein, Colloidal blue stain
[6] = target: AMC011 SOSIP.v9 (HIV-1 clade B, AMC011); test: negative-stain EM; purified SOSIPs incubated with Adjuplex, on carbon-covered copper grids, 2% uranyl formate; 2D class averages
[7] = target: AMC009 SOSIP.v9 (HIV-1 clade B, AMC009); test: native gel or EMSA; Blue Native-PAGE of the purified SOSIP.v9 proteins, 3-12% Bis-Tris NuPAGE gel, 2 ug protein, Colloidal blue stain
[8] = target: AMC009 SOSIP.v9 (HIV-1 clade B, AMC009); test: negative-stain EM; purified SOSIPs incubated with Adjuplex, on carbon-covered copper grids, 2% uranyl formate; 2D class averages
[9] = target: AMC016 SOSIP.v9 (HIV-1 clade B, AMC016); test: native gel or EMSA; Blue Native-PAGE of the purified SOSIP.v9 proteins, 3-12% Bis-Tris NuPAGE gel, 2 ug protein, Colloidal blue stain
[10] = target: AMC016 SOSIP.v9 (HIV-1 clade B, AMC016); test: negative-stain EM; purified SOSIPs incubated with Adjuplex, on carbon-covered copper grids, 2% uranyl formate; 2D class averages

TRO.11 SOSIP.v9 (complex)
stoichiometry N [1]: 3
stoichiometry N [2]: 3

AMC008 SOSIP.v9 (complex)
stoichiometry N [3]: 3
stoichiometry N [4]: 3

AMC011 SOSIP.v9 (complex)
stoichiometry N [5]: 3
stoichiometry N [6]: 3

AMC009 SOSIP.v9 (complex)
stoichiometry N [7]: 3
stoichiometry N [8]: 3

AMC016 SOSIP.v9 (complex)
stoichiometry N [9]: 3
stoichiometry N [10]: 3
